This note sets out measurements from PMC7374751, “TIMP-3 facilitates binding of target metalloproteinases to the endocytic receptor LRP-1 and promotes scavenging of MMP-1” (Scientific Reports, 2020).

The stoichiometry N is a count of units in the complex or per binding partner.

For assay [1], the target named is T1, FLAG-tagged ADAMTS-5 lacking the C-terminal thrombospondin domain (ADAMTS5-2) (UniProt Q9UNA0 262-874).
T1 construct: ADAMTS-5 lacking the C-terminal thrombospondin domain
T1 sequence (looked up): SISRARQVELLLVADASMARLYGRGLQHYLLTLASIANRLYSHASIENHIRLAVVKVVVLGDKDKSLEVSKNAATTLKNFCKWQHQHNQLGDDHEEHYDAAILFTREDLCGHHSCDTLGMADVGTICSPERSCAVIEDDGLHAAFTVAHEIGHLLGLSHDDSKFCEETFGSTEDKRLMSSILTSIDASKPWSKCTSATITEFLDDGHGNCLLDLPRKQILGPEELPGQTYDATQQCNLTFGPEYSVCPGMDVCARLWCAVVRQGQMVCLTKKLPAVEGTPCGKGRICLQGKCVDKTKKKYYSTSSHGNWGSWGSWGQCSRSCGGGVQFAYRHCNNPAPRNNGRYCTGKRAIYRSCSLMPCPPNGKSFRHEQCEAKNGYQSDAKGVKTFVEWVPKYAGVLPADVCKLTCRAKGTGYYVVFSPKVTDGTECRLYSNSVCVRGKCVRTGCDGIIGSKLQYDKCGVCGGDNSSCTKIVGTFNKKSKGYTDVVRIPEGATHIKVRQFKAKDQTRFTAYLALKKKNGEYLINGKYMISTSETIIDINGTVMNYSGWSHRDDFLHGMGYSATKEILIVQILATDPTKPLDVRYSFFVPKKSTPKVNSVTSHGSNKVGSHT
Description: enzyme activity of pre-formed complexes against synthetic substrates; 10 nM [35S]TIMP-3 incubated with an equimolar concentration of metalloproteinase for 1 h at 37 °C; complex formation and stability over 24 h checked by activity. The following applies: both partners purified.

The target in assay [2] is T2, FLAG-tagged ADAMTS-4 lacking the C-terminal spacer domain (ADAMTS4-2) (UniProt O75173 213-685).
T2 construct: ADAMTS-4 lacking the C-terminal spacer domain
T2 sequence (looked up): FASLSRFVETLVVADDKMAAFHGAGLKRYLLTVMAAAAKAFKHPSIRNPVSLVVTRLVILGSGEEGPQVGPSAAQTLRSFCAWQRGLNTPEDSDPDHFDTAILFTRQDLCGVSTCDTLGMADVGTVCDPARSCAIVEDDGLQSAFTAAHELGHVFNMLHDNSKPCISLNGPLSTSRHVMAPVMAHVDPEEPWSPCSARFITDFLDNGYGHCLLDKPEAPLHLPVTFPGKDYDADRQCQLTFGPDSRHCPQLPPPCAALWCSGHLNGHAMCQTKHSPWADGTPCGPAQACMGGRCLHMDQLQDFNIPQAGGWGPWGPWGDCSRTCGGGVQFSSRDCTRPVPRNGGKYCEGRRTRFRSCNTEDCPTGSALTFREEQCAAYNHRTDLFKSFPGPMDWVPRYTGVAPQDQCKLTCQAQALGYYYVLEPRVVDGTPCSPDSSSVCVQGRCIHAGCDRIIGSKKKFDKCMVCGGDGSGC
The description is as above. The following applies: both partners purified.

B1: FLAG-tagged TIMP-3 (natural protein, UniProt P35625 24-211, looked up)
chain: CTCSPSHPQDAFCNSDIVIRAKVVGKKLVKEGPFGTLVYTIKQMKMYRGFTKMPHVQYIHTEASESLCGLKLEVNKYQYLLTGRVYDGKMYTGLCNFVERWDQLTLSQRKGLNYRYHLGCNCKIKSCYYLPCFVTSKNECLWTDMLSNFGYPGYQSKHYACIRQKGGYCSWYRGWAPPDKSIINATDP
notes: also called T3; [35S]TIMP-3
Turning to B1, the “stoichiometry N” value in assay [1] and in assay [2] was 1 each time.
